# Laboratory results published in US20200331991A1.
# Experiments:
# [1] = biological target: human α-CGRP T30A (25-37) (human); test: Biacore 25 C, Fab over peptide on SA chip; KD ratio to parent 25-37
# [2] = biological target: human α-CGRP G33A (25-37) (human); test: as above
# [3] = biological target: human α-CGRP V28A (25-37) (human); test: as above
# [4] = biological target: human α-CGRP S34A (25-37) (human); test: as above
# [5] = biological target: human α-CGRP V32A (25-37) (human); test: as above
# [6] = biological target: human α-CGRP N31A (25-37) (human); test: as above
# [7] = biological target: human α-CGRP P29A (25-37) (human); test: as above
# [8] = biological target: human α-CGRP F27A (25-37) (human); test: as above
# [9] = biological target: human α-CGRP K35A (19-37) (human); test: Biacore 25 C, Fab over peptide on SA chip; KD ratio to parent 19-37
substance,measurement,setting,value
"anti-CGRP antibody 4901, Fab fragment",KD (mutant/parent),[1],0.2
same,KD (mutant/parent),[2],1.3
same,KD (mutant/parent),[3],0.8
same,KD (mutant/parent),[4],0.8
same,KD (mutant/parent),[5],0.9
same,KD (mutant/parent),[6],0.3
same,KD (mutant/parent),[7],0.2
same,KD (mutant/parent),[8],0.8
same,KD (mutant/parent),[9],0.3
